Data published in paper PMC9482650, “Quantitative fragmentomics allow affinity mapping of interactomes” (Nature Communications, 2022).

T1: SHANK1, Q9Y566
T1 sequence (Q9Y566 658-767, limits assumed, looked up): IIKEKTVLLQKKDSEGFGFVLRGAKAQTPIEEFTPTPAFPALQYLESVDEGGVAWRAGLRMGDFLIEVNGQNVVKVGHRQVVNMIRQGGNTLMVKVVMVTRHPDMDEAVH

T2: NHERF3_4, Q5T2W1
T2 sequence (Q5T2W1 373-468, limits assumed, looked up): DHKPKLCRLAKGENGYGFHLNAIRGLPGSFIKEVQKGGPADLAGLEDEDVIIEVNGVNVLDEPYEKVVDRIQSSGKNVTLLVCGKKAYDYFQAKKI

T3: LIN7C, Q9NUP9
T3 sequence (Q9NUP9 88-185, limits assumed, looked up): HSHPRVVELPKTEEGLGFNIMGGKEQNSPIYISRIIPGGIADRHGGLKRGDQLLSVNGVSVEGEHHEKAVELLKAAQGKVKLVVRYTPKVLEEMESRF

T4: SYNJ2BP, P57105
T4 sequence (P57105 8-110, limits assumed, looked up): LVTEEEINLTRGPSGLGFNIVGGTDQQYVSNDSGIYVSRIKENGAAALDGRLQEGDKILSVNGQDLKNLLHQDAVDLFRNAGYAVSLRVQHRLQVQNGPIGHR

T5: NHERF3_1, Q5T2W1
T5 sequence (Q5T2W1 4-100, limits assumed, looked up): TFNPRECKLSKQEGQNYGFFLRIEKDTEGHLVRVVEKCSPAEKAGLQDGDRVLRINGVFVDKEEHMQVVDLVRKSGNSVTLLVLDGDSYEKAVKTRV

T6: DFNB31_3, Q9P202
T6 sequence (Q9P202 811-907, limits assumed, looked up): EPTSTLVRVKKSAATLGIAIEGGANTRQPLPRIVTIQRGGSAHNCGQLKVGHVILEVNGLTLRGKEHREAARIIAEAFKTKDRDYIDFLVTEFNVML

T7: MPP2, Q14168
T7 sequence (Q14168 180-250, limits assumed, looked up): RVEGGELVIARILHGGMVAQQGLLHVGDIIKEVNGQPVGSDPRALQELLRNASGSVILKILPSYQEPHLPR

T8: SNTG1, Q9NSN8
T8 sequence (Q9NSN8 52-150, limits assumed, looked up): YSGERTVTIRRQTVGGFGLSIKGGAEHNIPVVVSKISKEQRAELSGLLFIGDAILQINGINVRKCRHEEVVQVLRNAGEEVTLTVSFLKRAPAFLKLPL

T9: LNX2_2, Q8N448
T9 sequence (Q8N448 334-432, limits assumed, looked up): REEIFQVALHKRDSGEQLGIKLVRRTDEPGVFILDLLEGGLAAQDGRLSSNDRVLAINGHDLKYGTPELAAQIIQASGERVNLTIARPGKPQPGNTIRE

T10: DLG3_2, Q92796
T10 sequence (Q92796 221-321, limits assumed, looked up): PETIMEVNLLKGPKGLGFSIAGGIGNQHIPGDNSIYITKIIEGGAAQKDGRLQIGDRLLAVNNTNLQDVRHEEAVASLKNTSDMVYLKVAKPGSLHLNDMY

T11: RHPN1, Q8TCX5
T11 sequence (Q8TCX5 508-602, limits assumed, looked up): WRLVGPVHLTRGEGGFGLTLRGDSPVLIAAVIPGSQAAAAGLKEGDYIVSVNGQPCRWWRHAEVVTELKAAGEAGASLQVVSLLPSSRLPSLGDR


Legend:
Test in all cases: holdup assay
Set-up in all cases: key: below the threshold = too weak to quantify, mostly under pKd 3.1 to 4
Conditions in all cases: plain residues with an end cap or a label only (N-terminal biotin on a linker: ttds)
FRMPD3, Q5JV73 = biological target: FRMPD3, Q5JV73
Chain of FRMPD3, Q5JV73 (Q5JV73 12-100): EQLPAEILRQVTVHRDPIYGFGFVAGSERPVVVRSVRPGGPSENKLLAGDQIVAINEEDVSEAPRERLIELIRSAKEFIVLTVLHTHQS

GORASP1, Q9BQQ3 = biological target: GORASP1, Q9BQQ3
Chain of GORASP1, Q9BQQ3 (Q9BQQ3 1-208): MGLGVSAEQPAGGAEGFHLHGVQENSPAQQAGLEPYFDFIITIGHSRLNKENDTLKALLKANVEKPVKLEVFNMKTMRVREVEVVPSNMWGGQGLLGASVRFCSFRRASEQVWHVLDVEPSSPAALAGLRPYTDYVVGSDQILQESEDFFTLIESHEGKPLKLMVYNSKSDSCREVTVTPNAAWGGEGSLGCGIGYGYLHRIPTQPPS

SCRIB_1, Q14160 = biological target: SCRIB_1, Q14160
Chain of SCRIB_1, Q14160 (Q14160 718-814): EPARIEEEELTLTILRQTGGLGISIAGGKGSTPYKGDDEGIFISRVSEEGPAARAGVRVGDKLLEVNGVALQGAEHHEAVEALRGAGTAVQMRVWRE

SHANK1, Q9Y566 = biological target: T1, SHANK1, Q9Y566
Inadl_8, Q8NI35 = biological target: Inadl_8, Q8NI35
Chain of Inadl_8, Q8NI35 (Q8NI35 1425-1530): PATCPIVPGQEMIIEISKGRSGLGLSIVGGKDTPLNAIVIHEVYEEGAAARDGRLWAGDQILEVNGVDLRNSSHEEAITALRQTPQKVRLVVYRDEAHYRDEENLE

PTPN3, P26045 = biological target: PTPN3, P26045
Chain of PTPN3, P26045 (P26045 505-587): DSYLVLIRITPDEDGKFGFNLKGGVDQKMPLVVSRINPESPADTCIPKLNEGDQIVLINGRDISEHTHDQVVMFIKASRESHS

NHERF3_4, Q5T2W1 = biological target: T2, NHERF3_4, Q5T2W1
MAGI1_2, Q96QZ7 = biological target: MAGI1_2, Q96QZ7
Chain of MAGI1_2, Q96QZ7 (Q96QZ7 456-580): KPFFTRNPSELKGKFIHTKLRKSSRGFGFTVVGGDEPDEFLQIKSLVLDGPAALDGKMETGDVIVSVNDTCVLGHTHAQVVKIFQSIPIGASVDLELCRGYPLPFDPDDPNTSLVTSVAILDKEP

LIN7C, Q9NUP9 = biological target: T3, LIN7C, Q9NUP9
NHERF4_2, Q86UT5 = biological target: NHERF4_2, Q86UT5
Chain of NHERF4_2, Q86UT5 (Q86UT5 220-308): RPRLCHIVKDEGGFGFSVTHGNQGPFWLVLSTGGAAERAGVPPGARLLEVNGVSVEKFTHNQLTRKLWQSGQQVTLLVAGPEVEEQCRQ

SYNJ2BP, P57105 = biological target: T4, SYNJ2BP, P57105
PDZRN4_1, Q6ZMN7 = biological target: PDZRN4_1, Q6ZMN7
Chain of PDZRN4_1, Q6ZMN7 (Q6ZMN7 213-318): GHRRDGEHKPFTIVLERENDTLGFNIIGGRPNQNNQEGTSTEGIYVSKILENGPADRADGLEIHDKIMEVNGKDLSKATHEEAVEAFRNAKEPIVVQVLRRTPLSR

NHERF3_1, Q5T2W1 = biological target: T5, NHERF3_1, Q5T2W1
DFNB31_3, Q9P202 = biological target: T6, DFNB31_3, Q9P202
MPP2, Q14168 = biological target: T7, MPP2, Q14168
NHERF2_2, Q15599 = biological target: NHERF2_2, Q15599
Chain of NHERF2_2, Q15599 (Q15599 142-238): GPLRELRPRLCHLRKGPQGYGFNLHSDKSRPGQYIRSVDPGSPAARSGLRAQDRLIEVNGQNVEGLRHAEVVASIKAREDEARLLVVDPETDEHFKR

SNTG1, Q9NSN8 = biological target: T8, SNTG1, Q9NSN8
DLG4_2, P78352 = biological target: DLG4_2, P78352
Chain of DLG4_2, P78352 (P78352 155-259): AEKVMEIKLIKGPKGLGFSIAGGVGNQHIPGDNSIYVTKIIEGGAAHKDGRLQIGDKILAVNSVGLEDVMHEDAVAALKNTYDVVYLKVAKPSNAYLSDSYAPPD

LNX2_2, Q8N448 = biological target: T9, LNX2_2, Q8N448
GORASP2, Q9H8Y8 = biological target: GORASP2, Q9H8Y8
TJP1_2, Q07157 = biological target: TJP1_2, Q07157
Chain of TJP1_2, Q07157 (Q07157 181-274): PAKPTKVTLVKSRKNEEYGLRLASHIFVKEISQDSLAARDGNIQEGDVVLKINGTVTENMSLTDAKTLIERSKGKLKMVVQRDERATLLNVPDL

MAST1, Q9Y2H9 = biological target: MAST1, Q9Y2H9
Chain of MAST1, Q9Y2H9 (Q9Y2H9 962-1065): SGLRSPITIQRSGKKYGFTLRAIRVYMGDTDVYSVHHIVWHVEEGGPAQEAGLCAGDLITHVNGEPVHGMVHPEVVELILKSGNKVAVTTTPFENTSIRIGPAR

DLG3_2, Q92796 = biological target: T10, DLG3_2, Q92796
RHPN1, Q8TCX5 = biological target: T11, RHPN1, Q8TCX5
DLG4_1, P78352 = biological target: DLG4_1, P78352
Chain of DLG4_1, P78352 (P78352 62-152): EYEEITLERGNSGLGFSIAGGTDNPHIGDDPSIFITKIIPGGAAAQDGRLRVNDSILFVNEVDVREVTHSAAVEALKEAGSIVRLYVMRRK

LNX1_1, Q8TBB1 = biological target: LNX1_1, Q8TBB1
Chain of LNX1_1, Q8TBB1 (Q8TBB1 261-371): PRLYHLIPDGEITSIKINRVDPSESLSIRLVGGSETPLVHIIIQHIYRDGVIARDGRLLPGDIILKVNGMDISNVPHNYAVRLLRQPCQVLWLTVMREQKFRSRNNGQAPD

MAGI2_3, Q86UL8 = biological target: MAGI2_3, Q86UL8
Chain of MAGI2_3, Q86UL8 (Q86UL8 600-682): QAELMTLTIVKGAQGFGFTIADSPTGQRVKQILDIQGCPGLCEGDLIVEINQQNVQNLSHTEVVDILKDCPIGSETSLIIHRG

| Binder | pKd (FRMPD3, Q5JV73) | pKd (GORASP1, Q9BQQ3) | pKd (SCRIB_1, Q14160) | pKd (SHANK1, Q9Y566) | pKd (Inadl_8, Q8NI35) | pKd (PTPN3, P26045) | pKd (NHERF3_4, Q5T2W1) | pKd (MAGI1_2, Q96QZ7) | pKd (LIN7C, Q9NUP9) | pKd (NHERF4_2, Q86UT5) | pKd (SYNJ2BP, P57105) | pKd (PDZRN4_1, Q6ZMN7) | pKd (NHERF3_1, Q5T2W1) | pKd (DFNB31_3, Q9P202) | pKd (MPP2, Q14168) | pKd (NHERF2_2, Q15599) | pKd (SNTG1, Q9NSN8) | pKd (DLG4_2, P78352) | pKd (LNX2_2, Q8N448) | pKd (GORASP2, Q9H8Y8) | also measured |
| --- | --- | --- | --- | --- | --- | --- | --- | --- | --- | --- | --- | --- | --- | --- | --- | --- | --- | --- | --- | --- | --- |
| NQLAWFDTDL [CTNNB1, P35222] | below the threshold | below the threshold | 4.86 | 4.1 | below the threshold | 4.33 | below the threshold | below the threshold | below the threshold | below the threshold | 4.09 | below the threshold | 3.66 | below the threshold | below the threshold | 4.87 | 3.71 | below the threshold | below the threshold | below the threshold | pKd (TJP1_2, Q07157): below the threshold; pKd (MAST1, Q9Y2H9): 4.83; pKd (DLG3_2, Q92796): below the threshold; pKd (RHPN1, Q8TCX5): 4.46; pKd (DLG4_1, P78352): below the threshold; pKd (LNX1_1, Q8TBB1): 3.47; pKd (MAGI2_3, Q86UL8): below the threshold |
| QFQYAKESYI [TAGAP, Q8N103] | below the threshold | 3.9 | 3.72 | below the threshold | 3.78 | 4.84 | below the threshold | below the threshold | 4.21 | below the threshold | 4.71 | 3.96 | 5.08 | below the threshold | below the threshold | below the threshold | 4.53 | 4.41 | below the threshold | 3.9 | pKd (TJP1_2, Q07157): below the threshold; pKd (MAST1, Q9Y2H9): 3.54; pKd (DLG3_2, Q92796): 4.15; pKd (RHPN1, Q8TCX5): 4.68; pKd (DLG4_1, P78352): 3.9; pKd (LNX1_1, Q8TBB1): 3.66; pKd (MAGI2_3, Q86UL8): below the threshold |
| SRRPRTETQV [HPV31-E6, P17386] | below the threshold | below the threshold | 4.6 | below the threshold | below the threshold | 4.66 | below the threshold | 5.54 | 3.93 | below the threshold | 5.41 | 4.19 | 4.32 | below the threshold | below the threshold | below the threshold | 4.23 | 5.36 | below the threshold | 3.65 | pKd (TJP1_2, Q07157): below the threshold; pKd (MAST1, Q9Y2H9): 4.42; pKd (DLG3_2, Q92796): 5.41; pKd (RHPN1, Q8TCX5): 3.74; pKd (DLG4_1, P78352): 5.02; pKd (LNX1_1, Q8TBB1): below the threshold; pKd (MAGI2_3, Q86UL8): 4.1 |
